Here are results for 13 molecules from US20240182575A1 (Ablynx, published 2024).

The target in assay [1] is T1, HuCTLA4-HuIgG1 (fusion protein of the extracellular part of human CD152 and human Fc gamma 1, CTLA4-Ig) (human, UniProt P16410 36-161).
T1 construct: extracellular domain; also called CTLA4-hFc; CTLA4-Fc; not shown: human Fc gamma 1
Description: SPR, Biacore T100, CTLA4-Ig amine-coupled. As to the method: Affinity constants (Kd) of individual purified Nanobody clones were determined by surface plasmon resonance on a Biacore T100 instrument. […] Remaining reactive groups were inactivated using ethanolamine. […] Each sample was injected for 2 min at a flow rate of 45 μl/min to allow for binding to chip-bound antigen. Next, binding buffer without Nanobody was sent over the chip at the same flow rate to allow for dissociation of bound Nanobody. After 2 min, remaining bound analyte was removed by injecting regeneration solution (10 mM Glycine/HCl pH 1.5). Binding curves obtained at different concentrations of Nanobody were used to calculate KD values. For some clones, only a single undetermined concentrations of Nanobody was injected.
On the technique in general: SPR reads the build-up and loss of mass on a sensor chip optically.

Assay [2] deals with T2, human CTLA4 (Y201 mutated to valine) on stably transfected CHO-K1 cells (human, UniProt P16410 36-223).
T2 construct: whole, on cells; the mutation of the intracellular position Y201 keeps the protein on the membrane; also called human CTLA4 overexpressing CHO cells; human CTLA4 transfectant
Briefly: FACS, direct binding titration on human CTLA4 CHO cells (head prints IC50). As to the method: Binding of putative CTLA4 reactive Nanobodies clones was detected using unlabeled anti-c-myc tag mouse monoclonal antibody 9E10, followed by a phycoerythrin conjugated F(ab′)2 derived from goat-anti-mouse IgG (human and bovine crossabsorbed), and read on a BD FACSarray instrument. Dead cells were excluded from the analysis by gating out TOPRO3 vital dye positive scoring cells. Binding of the Nanobodies to cells was evaluated in BD FACSarray control software as PE channel histograms.
A general note: A flow cytometer gives signals particle by particle.

Assay [3] has as its target T3, cynomolgus monkey CTLA4 on stably transfected CHO-K1 cells (human CTLA4 cDNA with S13N, I17T and L105M) (human backbone with cynomolgus monkey …, UniProt P16410 36-223).
T3 chain: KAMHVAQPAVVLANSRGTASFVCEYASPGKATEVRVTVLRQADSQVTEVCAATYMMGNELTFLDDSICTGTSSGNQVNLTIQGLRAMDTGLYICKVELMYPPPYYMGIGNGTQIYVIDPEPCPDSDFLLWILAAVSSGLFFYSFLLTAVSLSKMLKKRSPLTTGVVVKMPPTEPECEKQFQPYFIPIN
Description: FACS, direct binding titration on cyno CTLA4 CHO cells (head prints IC50).

Assay [4] deals with T1, HuCTLA4-HuIgG1 (fusion protein of the …). Briefly: alphascreen; competitor biotinylated HuCD80-MuIgG2a. An excerpt:
Individual clones were scored as putative CTLA4/CD80 interaction inhibiting if the presence of the periplasmic extract decreased the fluorescent signal of the acceptor beads.

Assay [5] addresses T4, rhB7H1-Fc (fusion protein of the extracellular part of human B7-H1 (PD-L1) and mouse Fc gamma 1, R&D Systems … (human; mouse, UniProt Q9NZQ7 19-238; P01868 98-324 = IgG part, limits assumed).
T4 construct: extracellular domain;domain: Fc; bought; also called B7-H1 ectodomain
Description: competition ELISA, coated B7-H1; blocked ligand PD-1-biotin. How it is done: Next, 0.5 μg/ml of PD-1 was preincubated with a dilution series of purified Nanobody.

The target in assay [6] is T5, rhB7-H2-Fc (fusion protein of the extracellular part of human B7-H2 (ICOSL) and mouse Fc gamma 1, R&D Systems … (human; mouse, UniProt O75144 19-256; P01868 98-324 = IgG part, limits assumed).
T5 construct: extracellular domain;domain: Fc; bought; also called B7-H2 ectodomain
Description: ELISA, coated B7-H2. How it is done:
Next, 10 μl of periplasmic extract containing Nanobody of the different clones in 100 μl 2% Marvel PBST were allowed to bind to the immobilized antigen. […] Binding specificity was determined based on OD values compared to controls having received no Nanobody (low control).
After expression, the Nanobodies were purified via the His-tag on Talon beads.

Assay [7] has as its target T6, rhPDL2-Fc (fusion protein of the extracellular part of human PD-L2 and mouse Fc gamma 1, R&D Systems Cat … (human; mouse, UniProt Q9BQ51 20-220; P01868 98-324 = IgG part, limits assumed).
T6 construct: extracellular domain;domain: Fc; bought; also called PD-L2 ectodomain
Description: ELISA, coated PD-L2. How it is done:
In short, 5 μg/ml PD-L2 ectodomain (R&D Systems, Minneapolis, US, Cat #1224-PL) was immobilized on maxisorp microtiter plates (Nunc, Wiesbaden, Germany) and free binding sites were blocked using 4% Marvel in PBS. Next, 10 μl of periplasmic extract containing Nanobody of the different clones in 100 μl 2% Marvel PBST were allowed to bind to the immobilized antigen. […] Binding specificity was determined based on OD values compared to controls having received no Nanobody (low control).
After expression, the obtained Nanobodies were purified via the His-tag on Talon beads.
In general terms: An ELISA detects its analyte on a solid surface through an enzyme-linked reagent.

Assay [8] addresses T4, rhB7H1-Fc (fusion protein of the …). Briefly: ELISA, coated B7-H1.
The target in assay [9] is T5, rhB7-H2-Fc (fusion protein of the …). Briefly: competition ELISA, coated B7-H2; blocked ligand ICOS-biotin.
Assay [10] deals with T2, human CTLA4 (Y201 mutated to valine) on …. Description: FACS competition, human CTLA4 CHO cells; blocked ligand CD80-Fc. An excerpt: The potency of selected Nanobodies to inhibit the interaction of CTLA4 with CD80 was also ranked using FACS based screening method. […] This concentration was previously determined to be the minimal amount required to saturate all CD80 binding sites on both human and cyno CTLA4 expressing CHO cell clones in the absence of any CTLA4 interaction blocking proteins. […] Dead cells were stained by including TOPRO3 vital dye in the final resuspension buffer. All samples were read on a BD FACSarray instrument. Dead cells were excluded from the analysis by gating out TOPRO3 vital dye positive scoring cells.

Assay [11] has as its target T6, rhPDL2-Fc (fusion protein of the …). Description: competition ELISA, coated PD-L2; blocked ligand PD-1-biotin. How it is done:
In short, 2 μg/ml PD-L2 ectodomain (R&D Systems, Minneapolis, US, Cat #1224-PL) was immobilized on maxisorp microtiter plates (Nunc, Wiesbaden, Germany) and free binding sites were blocked using 4% Marvel in PBS. Next, 0.5 μg/ml of PD-1 was preincubated with a dilution series of purified Nanobody.

Assay [12] addresses T7, HuCD86-MuIgG2a (fusion protein of the extracellular part of human CD86 and mouse Fc gamma 2a, Ancell Cat … (human; mouse, UniProt P42081 24-247; P01863 98-330 = IgG part).
T7 construct: extracellular domain;domain: Fc; bought; also called B7-2
Description: competition ELISA, coated CD86-Ig; blocked ligand CD28-Ig.

T6 sequence (Q9BQ51 other isoform, or with tags, fused parts or gaps limits assumed): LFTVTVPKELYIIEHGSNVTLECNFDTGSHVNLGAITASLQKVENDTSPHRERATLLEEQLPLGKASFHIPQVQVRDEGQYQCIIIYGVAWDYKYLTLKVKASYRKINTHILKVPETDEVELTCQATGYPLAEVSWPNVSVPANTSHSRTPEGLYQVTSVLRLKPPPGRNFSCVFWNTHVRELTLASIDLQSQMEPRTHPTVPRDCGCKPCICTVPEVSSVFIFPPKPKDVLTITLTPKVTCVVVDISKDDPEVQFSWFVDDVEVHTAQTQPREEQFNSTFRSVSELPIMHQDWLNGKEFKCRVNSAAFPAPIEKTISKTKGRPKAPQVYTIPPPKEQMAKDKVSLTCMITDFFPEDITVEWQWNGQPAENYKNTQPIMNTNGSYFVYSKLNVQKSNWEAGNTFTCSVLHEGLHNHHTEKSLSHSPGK
T4 sequence (Q9NZQ7 other isoform, or with tags, fused parts or gaps limits assumed): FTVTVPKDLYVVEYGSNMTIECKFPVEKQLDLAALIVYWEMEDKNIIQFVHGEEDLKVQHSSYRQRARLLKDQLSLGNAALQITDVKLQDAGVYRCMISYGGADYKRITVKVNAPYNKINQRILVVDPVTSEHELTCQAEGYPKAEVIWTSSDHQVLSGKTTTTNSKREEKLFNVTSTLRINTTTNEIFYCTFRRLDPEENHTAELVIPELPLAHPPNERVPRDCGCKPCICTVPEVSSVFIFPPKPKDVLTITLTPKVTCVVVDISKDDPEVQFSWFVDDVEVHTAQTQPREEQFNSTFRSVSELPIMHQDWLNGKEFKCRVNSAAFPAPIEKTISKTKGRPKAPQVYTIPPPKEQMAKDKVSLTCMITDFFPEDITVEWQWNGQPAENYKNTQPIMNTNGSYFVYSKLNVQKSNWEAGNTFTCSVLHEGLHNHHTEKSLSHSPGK
T1 sequence (P16410 36-161 limits assumed): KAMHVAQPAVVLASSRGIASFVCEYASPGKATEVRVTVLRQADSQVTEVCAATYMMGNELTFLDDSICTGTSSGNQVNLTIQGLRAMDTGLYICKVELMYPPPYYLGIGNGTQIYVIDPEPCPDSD
T5 sequence (O75144 other isoform, or with tags, fused parts or gaps limits assumed): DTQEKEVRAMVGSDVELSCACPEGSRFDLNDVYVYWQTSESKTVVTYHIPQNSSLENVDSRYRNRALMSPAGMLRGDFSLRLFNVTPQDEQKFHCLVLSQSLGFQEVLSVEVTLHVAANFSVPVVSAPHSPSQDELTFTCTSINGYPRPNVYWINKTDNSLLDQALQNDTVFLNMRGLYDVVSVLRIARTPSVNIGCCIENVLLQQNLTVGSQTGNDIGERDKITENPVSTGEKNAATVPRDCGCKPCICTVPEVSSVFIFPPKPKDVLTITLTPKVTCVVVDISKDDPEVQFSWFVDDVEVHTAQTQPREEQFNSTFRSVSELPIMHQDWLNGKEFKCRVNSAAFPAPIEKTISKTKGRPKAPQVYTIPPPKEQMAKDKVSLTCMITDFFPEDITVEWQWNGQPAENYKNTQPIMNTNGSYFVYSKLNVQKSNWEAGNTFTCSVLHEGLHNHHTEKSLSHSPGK
T7 sequence (P42081 other isoform, or with tags, fused parts or gaps limits assumed): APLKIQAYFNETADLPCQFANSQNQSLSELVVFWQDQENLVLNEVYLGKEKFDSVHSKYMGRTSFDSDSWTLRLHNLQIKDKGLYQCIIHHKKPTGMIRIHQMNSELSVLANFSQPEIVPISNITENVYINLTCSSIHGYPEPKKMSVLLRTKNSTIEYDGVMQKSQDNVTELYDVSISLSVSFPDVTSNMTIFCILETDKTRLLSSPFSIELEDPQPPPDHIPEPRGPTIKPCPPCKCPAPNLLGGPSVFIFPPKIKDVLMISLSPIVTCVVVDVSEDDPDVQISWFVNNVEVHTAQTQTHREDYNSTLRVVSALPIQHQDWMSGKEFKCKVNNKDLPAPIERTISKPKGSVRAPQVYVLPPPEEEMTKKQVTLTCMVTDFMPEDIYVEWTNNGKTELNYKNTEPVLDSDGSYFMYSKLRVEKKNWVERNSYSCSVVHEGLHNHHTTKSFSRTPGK

B1: 4CTLAPMP2G9 (VHH)
VHH: EVQLVKSGGQLVQAGGSLRLSCAATGRTYNSYPLGWFRQAPGKEREFVAAISASGTLRAYADSVKGRFTISRDSAKNTVYLQMNNLKPEDTAVYYCARARSVGWRASHHLSDYDNWGQGTQVTVSS
notes: short label tied to the entry by the clone code only; not shown: C-terminal c-myc tag and His6 tag
Molecule B1 gave a Kd in [1] of 1.69 nM. For the same molecule, the off-rate constant (koff) in assay [1] was determined as 0.00732 s⁻¹. For the same molecule, the kon in [1] turned out to be 4.35e+06 M⁻¹ s⁻¹. Besides, the figures for the concentration for half-maximal inhibition (IC50) in assay [2], in [3] and in assay [4] were 2.47 nM, 2.66 nM and 2.01 nM, respectively.

B2: 104B10 (VHH)
VHH: EVQLVESGGGLVQAGGSLRLSCAASGSTFSQYDVGWYRQAPGKQRELVAFSSSGGRTIYPDSVKGRFTFSRDNTKNTVYLQMTSLKPEDTAVYYCKIDWYLNSYWGQGTQVTVSS
As to B2, the “IC50 (read off the curve)” value in assay [5] is ~20 nM.

B3: 95E6 (VHH)
VHH: EVQLVESGGALVQPGGSLRLSCAASGFTLGDYVIGWFRQAPGKEREWVSGISSRDDTTYYANSVKGRFTISRDNAKNTMYLQMNSLKPEDSAVYYCALRSGIAVARAPTNYDYWGQGTQVTVSS
notes: Nanobody against B7-H2 (ICOSL)
Consider B3, for which the binding result in [6] is “binds”.

B4: 103E3 (VHH)
VHH: EVQLVESGGGLVQTGGSLRLSCAASGFTLDYYGIGWFRQAPGKEREGVSFISGSDGSTYYAESVKGRFTISRDKAKNTVYLQMNSLKPEDTAVYYCAADPWGPPSIATMTSYEYKHWGQGTQVTVSS
notes: Nanobody against PD-L2
B4: the binding result in assay [7] is recorded as “binds”.

B5: 104D2 (VHH)
VHH: EVQLVESGGGLVQPGGSLRLSCAASGFTLDYYAIGWFRQAPGKEREWASSISSSDGSTYYADSVKGRFTISRDNAKNTVFLQMNSLKPEDTAVYSCAASQAPITIATMMKPFYDYWGQGTQVTVSS
On to B5, for which the 50% effective concentration (EC50 (read off the curve)) in assay [8] lay within 5 to 6 nM. Besides, in [5], the “IC50 (read off the curve)” value was ~10 nM.

B6: 95G5 (VHH)
VHH: EVQLVESGGGLVQAGGSLRLSCASSGSTFSIDVMGWYRQAPGKVRERVAIIGTGGFPVYADSVKGRFTISRDNAKNTVYLQMNSLKPEDTAVYYCNAARLVALGSWGQGTQVTVSS
notes: as for B3
Consider B6, for which, in assay [9], the “IC50 (read off the curve)” value was ~10 nM. Besides, the 50% effective concentration (EC50 (read off the curve)) in assay [6] is ~100 nM.

B7: 4CTLAPMP02F2 (VHH)
VHH: EVQLMESGGGLVQTGGSLRLSCAASGRTFSNYTMGWFRQAPGKDREFVAAISRSGSLKAYADSVKGRFTPSRDNAKKMAYLQMNSLKPEDTAVYYCAAAPVPWGTRPSLFPYDSWGQGTQVTVSS
notes: as for B1
On to B7, for which, in assay [1], the affinity, expressed as Kd, was 0.638 nM; the koff stood at 0.00391 s⁻¹; the on-rate (kon) came out at 6.13e+06 M⁻¹ s⁻¹. The molecule also yielded an IC50 in [2] of 2.56 nM. This molecule also came in with an IC50 in assay [3] of 2.42 nM. Moreover, the “IC50 (read off the curve)” value in [10] was ~10 nM.

B8: 4CTLAPMP02G2 (VHH)
VHH: EVQLVESRGGLVQTGGSLRLSCAASGRTFSNYTMGWFRQAPGKDREFVAAISRSGSLKSYADSVKGRFTISRDNAKKMAYLQMNSLKPEDTAVYYCAAAPVPWGTRPSFFTYDSWGQGTQVTVSS
notes: as for B1
In [1], B8 came in with a Kd of 0.478 nM, a koff of 0.00355 s⁻¹ and a kon of 7.42e+06 M⁻¹ s⁻¹. The IC50 in [2] worked out at 2.28 nM. The molecule also had an IC50 in assay [3] of 2.08 nM. For the same molecule, the “IC50 (read off the curve)” value in assay [10] was ~8 nM.

B9: 104F5 (VHH)
VHH: EVQLVESGGGLVQPGGSLRLSCAASGFTLDYYAKCWFRQAPGKEREWVSCISSSDGSTYYADSVKGRFTISRDNAKNTVYLQMNSLKPEDTAVYFCAARHGGPLTVEYFFDYWGQGTQVTVSS
As to B9, the “EC50 (read off the curve)” value in [8] is ~3 nM. For the same molecule, in assay [5], the “IC50 (read off the curve)” value was ~9 nM.

B10: 103D3 (VHH)
VHH: EVQLVESGGGLVEPGGSLRLSCVASGFTFSSYDMSWVRQAPGKGLEWVSTINSGGGITYRGSVKGRFTISRDNAKNTLYLQMNSLKPEDTAVYYCENGGSSYRRGQGTQVTVSS
notes: Nanobody against PD-L2
B10: the “EC50 (read off the curve)” value in [7] is ~7 nM. The “IC50 (read off the curve)” value in assay [11] is ~10 nM.

B11: CD8086PMP2B4 (VHH)
VHH: EVQLVESGGGLVQAGGSLRLSCAASGSIFSIYTMGWYRQAPGEQRELVAAITSGGSTNYADSVKGRFTISRDNAKNTVYLQMNSLKPEDTAVYYCNAIAHEEGVYRWDFWGQGTQVTVSS
notes: not shown: C-terminal c-myc tag and His6 tag
For the molecule B11, in assay [12], the binding result is reported as “binds”.

B12: 104E12 (VHH)
VHH: EVQLVESGGGLVQPGGSLRLSCAASGFTFDYYAIGWFRQAPGKAREGVSCISGGDNSTYYADSVKGRFTISRDNAKNTVYLQMNSLKPEDTAVYYCATGGWKYCSGYDPEYIYWGQGTQVTVSS
B12: in assay [8], the “EC50 (read off the curve)” value was ~10 nM.

B13: 103F10 (VHH)
VHH: EVQLVESGGGLVQAGGSLRLSCAASGRTFSSGTMGWFRRAPGKEREFVASIPWSGGRTYYADSVKDRFTISRDNAQNTVFLQMNSLKPEDTAVYYCAFKERSTGWDFASWGQGIQVTVSS
notes: Nanobody against PD-L2
Regarding B13, in assay [7], the “EC50 (read off the curve)” value was ~20 nM.

Broadly, the Kd is the equilibrium constant for the complex coming apart. In general, koff refers to a measure of how fast the partners let go of each other. Broadly, the kon is the rate constant with which the complex forms. As a reminder, the IC50 is the concentration needed to halve the response being measured. Usually EC50 (read off the curve) stands for the concentration giving half of the maximal effect.
